From US20100215651A1 (GLENMARK PHARMACEUTICALS S A, published 2010)

T1: human CD19 (human, UniProt P15391 20-556)
T1 construct: CD19 as expressed on Raji, NALM-6 and SU-DHL-6 cells; also called CD19 antigen; B-cell surface antigen B4
T1 sequence: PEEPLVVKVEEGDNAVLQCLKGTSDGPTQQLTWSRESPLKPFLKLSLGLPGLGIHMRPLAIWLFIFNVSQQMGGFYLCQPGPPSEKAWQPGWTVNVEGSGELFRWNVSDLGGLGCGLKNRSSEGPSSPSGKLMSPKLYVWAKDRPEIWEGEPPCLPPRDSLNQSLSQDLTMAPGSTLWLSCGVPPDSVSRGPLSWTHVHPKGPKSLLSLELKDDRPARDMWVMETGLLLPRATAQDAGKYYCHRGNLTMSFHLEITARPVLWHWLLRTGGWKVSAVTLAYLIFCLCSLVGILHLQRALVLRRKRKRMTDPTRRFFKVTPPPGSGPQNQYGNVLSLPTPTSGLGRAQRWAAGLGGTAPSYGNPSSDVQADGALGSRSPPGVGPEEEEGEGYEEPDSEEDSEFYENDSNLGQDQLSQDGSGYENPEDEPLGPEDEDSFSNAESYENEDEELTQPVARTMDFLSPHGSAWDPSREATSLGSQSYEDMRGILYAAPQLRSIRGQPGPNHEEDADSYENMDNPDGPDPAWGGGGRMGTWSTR


Biological target: T1, human CD19
Test: flow cytometry, Raji cells, MPF vs chimeric FMC63
Description: Binding of the CD19 humanized monoclonal antibodies by flow cytometry to Raji tumor cells (human Burkitt lymphoma, DSMZ ACC319), NALM-6 (human B cell precursor leukemia, DSMZ ACC128) and SU-DHL-6 (human B cell lymphoma, DSMZ ACC572) (all cell lines from DSMZ Braunschweig, Deutschland) was assessed. Cells were incubated with serial dilutions of each humanized monoclonal antibody. An irrelevant human IgG1 was used as a negative control. The cells were washed and detected by a phycoerythrin-labeled (PE) anti-human secondary antibody (eBioscience, CA, USA) and analyzed by flow cytometry. […] From MFI versus antibody concentration curves, Mid-Point Fluorescence (MPF) value for each anti-CD19 humanized antibody was calculated using the software GraphPad Prism 5 (CA, USA).

Binder	relative MPF (% of chimeric FMC63) [%]	binding result
VH16 R94K/VL43 V3Q/T7S/Y32F/P44I/N92A (antibody, human IgG1, kappa, V domains shown, human IgG1/kappa) VH: QVQLVQSGGGVVQPGRSLRLSCAASGVSLPDYGVSWVRQAPGKGLEWVAVIWGSETTYYNSALKSRFTISRDNSKNTLYLQMNSLRAEDTAVYYCAKHYYYGGSYAMDYWGQGTLVTVSS VL: DIQMTQSPSSLSASVGDRVTITCRASQDISKFLNWYQQKPGKAIKLLIYHTSRLHSGVPSRFSGSGSGTDFTLTISSLQPEDFATYYCQQGATLPYTFGPGTKVDIKR	111	
VH16-F67L/VL43-F71Y (antibody, human IgG1, name in Kabat numbering, V domains shown, substitutions in Kabat numbering) VH: QVQLVQSGGGVVQPGRSLRLSCAASGVSLPDYGVSWVRQAPGKGLEWVAVIWGSETTYYNSALKSRLTISRDNSKNTLYLQMNSLRAEDTAVYYCARHYYYGGSYAMDYWGQGTLVTVSS VL: DIVMTQTPSSLSASVGDRVTITCRASQDISKYLNWYQQKPGKAPKLLIYHTSRLHSGVPSRFSGSGSGTDYTLTISSLQPEDFATYYCQQGNTLPYTFGPGTKVDIKR	6.54	
VH16 R94K Y96F VL43 (antibody, human IgG1, name in Kabat numbering, V domains shown, substitutions in Kabat numbering) VH: QVQLVQSGGGVVQPGRSLRLSCAASGVSLPDYGVSWVRQAPGKGLEWVAVIWGSETTYYNSALKSRFTISRDNSKNTLYLQMNSLRAEDTAVYYCAKHFYYGGSYAMDYWGQGTLVTVSS VL: DIVMTQTPSSLSASVGDRVTITCRASQDISKYLNWYQQKPGKAPKLLIYHTSRLHSGVPSRFSGSGSGTDFTLTISSLQPEDFATYYCQQGNTLPYTFGPGTKVDIKR	5.36	
VH16 R94K Y98F VL43 (antibody, human IgG1, name in Kabat numbering, V domains shown, substitutions in Kabat numbering) VH: QVQLVQSGGGVVQPGRSLRLSCAASGVSLPDYGVSWVRQAPGKGLEWVAVIWGSETTYYNSALKSRFTISRDNSKNTLYLQMNSLRAEDTAVYYCAKHYYFGGSYAMDYWGQGTLVTVSS VL: DIVMTQTPSSLSASVGDRVTITCRASQDISKYLNWYQQKPGKAPKLLIYHTSRLHSGVPSRFSGSGSGTDFTLTISSLQPEDFATYYCQQGNTLPYTFGPGTKVDIKR	34.1	
VH16 Y32F/R94K/VL43 V3Q/T7S/N92A (antibody, human IgG1, name in Kabat numbering, V domains shown, substitutions in Kabat numbering) VH: QVQLVQSGGGVVQPGRSLRLSCAASGVSLPDFGVSWVRQAPGKGLEWVAVIWGSETTYYNSALKSRFTISRDNSKNTLYLQMNSLRAEDTAVYYCAKHYYYGGSYAMDYWGQGTLVTVSS VL: DIQMTQSPSSLSASVGDRVTITCRASQDISKYLNWYQQKPGKAPKLLIYHTSRLHSGVPSRFSGSGSGTDFTLTISSLQPEDFATYYCQQGATLPYTFGPGTKVDIKR	58.8	
VH16 R94K Y97F VL43 (antibody, human IgG1, name in Kabat numbering, V domains shown, substitutions in Kabat numbering) VH: QVQLVQSGGGVVQPGRSLRLSCAASGVSLPDYGVSWVRQAPGKGLEWVAVIWGSETTYYNSALKSRFTISRDNSKNTLYLQMNSLRAEDTAVYYCAKHYFYGGSYAMDYWGQGTLVTVSS VL: DIVMTQTPSSLSASVGDRVTITCRASQDISKYLNWYQQKPGKAPKLLIYHTSRLHSGVPSRFSGSGSGTDFTLTISSLQPEDFATYYCQQGNTLPYTFGPGTKVDIKR	72.8	
VH16 R94K Y32F VL43 (antibody, human IgG1, name in Kabat numbering, V domains shown, substitutions in Kabat numbering) VH: QVQLVQSGGGVVQPGRSLRLSCAASGVSLPDFGVSWVRQAPGKGLEWVAVIWGSETTYYNSALKSRFTISRDNSKNTLYLQMNSLRAEDTAVYYCAKHYYYGGSYAMDYWGQGTLVTVSS VL: DIVMTQTPSSLSASVGDRVTITCRASQDISKYLNWYQQKPGKAPKLLIYHTSRLHSGVPSRFSGSGSGTDFTLTISSLQPEDFATYYCQQGNTLPYTFGPGTKVDIKR	62.5	
VH16-F67L/VL43-Y87F (antibody, human IgG1, name in Kabat numbering, V domains shown, substitutions in Kabat numbering) VH: QVQLVQSGGGVVQPGRSLRLSCAASGVSLPDYGVSWVRQAPGKGLEWVAVIWGSETTYYNSALKSRLTISRDNSKNTLYLQMNSLRAEDTAVYYCARHYYYGGSYAMDYWGQGTLVTVSS VL: DIVMTQTPSSLSASVGDRVTITCRASQDISKYLNWYQQKPGKAPKLLIYHTSRLHSGVPSRFSGSGSGTDFTLTISSLQPEDFATYFCQQGNTLPYTFGPGTKVDIKR	4.35	

Second part, the binder after the results:

relative MPF (% of chimeric FMC63) [%]	binding result	Binder
8.33		VH16-G42R/VL43-P44V (antibody, human IgG1, name in Kabat numbering, V domains shown, substitutions in Kabat numbering) VH: QVQLVQSGGGVVQPGRSLRLSCAASGVSLPDYGVSWVRQAPRKGLEWVAVIWGSETTYYNSALKSRFTISRDNSKNTLYLQMNSLRAEDTAVYYCARHYYYGGSYAMDYWGQGTLVTVSS VL: DIVMTQTPSSLSASVGDRVTITCRASQDISKYLNWYQQKPGKAVKLLIYHTSRLHSGVPSRFSGSGSGTDFTLTISSLQPEDFATYYCQQGNTLPYTFGPGTKVDIKR
4.19		VH16-R71K/VL43-Y87F (antibody, human IgG1, name in Kabat numbering, V domains shown, substitutions in Kabat numbering) VH: QVQLVQSGGGVVQPGRSLRLSCAASGVSLPDYGVSWVRQAPGKGLEWVAVIWGSETTYYNSALKSRFTISKDNSKNTLYLQMNSLRAEDTAVYYCARHYYYGGSYAMDYWGQGTLVTVSS VL: DIVMTQTPSSLSASVGDRVTITCRASQDISKYLNWYQQKPGKAPKLLIYHTSRLHSGVPSRFSGSGSGTDFTLTISSLQPEDFATYFCQQGNTLPYTFGPGTKVDIKR
6.93		VH16-R71K/VL43-P44V (antibody, human IgG1, name in Kabat numbering, V domains shown, substitutions in Kabat numbering) VH: QVQLVQSGGGVVQPGRSLRLSCAASGVSLPDYGVSWVRQAPGKGLEWVAVIWGSETTYYNSALKSRFTISKDNSKNTLYLQMNSLRAEDTAVYYCARHYYYGGSYAMDYWGQGTLVTVSS VL: DIVMTQTPSSLSASVGDRVTITCRASQDISKYLNWYQQKPGKAVKLLIYHTSRLHSGVPSRFSGSGSGTDFTLTISSLQPEDFATYYCQQGNTLPYTFGPGTKVDIKR
12.3		VH16-L78V/VL43-F71Y (antibody, human IgG1, name in Kabat numbering, V domains shown, substitutions in Kabat numbering) VH: QVQLVQSGGGVVQPGRSLRLSCAASGVSLPDYGVSWVRQAPGKGLEWVAVIWGSETTYYNSALKSRFTISRDNSKNTVYLQMNSLRAEDTAVYYCARHYYYGGSYAMDYWGQGTLVTVSS VL: DIVMTQTPSSLSASVGDRVTITCRASQDISKYLNWYQQKPGKAPKLLIYHTSRLHSGVPSRFSGSGSGTDYTLTISSLQPEDFATYYCQQGNTLPYTFGPGTKVDIKR
	binds	VH16 Y32F/R94K/VL43 V3Q/T7S/Y32F/N92A (antibody, human IgG1, name in Kabat numbering, V domains shown, substitutions in Kabat numbering) VH: QVQLVQSGGGVVQPGRSLRLSCAASGVSLPDFGVSWVRQAPGKGLEWVAVIWGSETTYYNSALKSRFTISRDNSKNTLYLQMNSLRAEDTAVYYCAKHYYYGGSYAMDYWGQGTLVTVSS VL: DIQMTQSPSSLSASVGDRVTITCRASQDISKFLNWYQQKPGKAPKLLIYHTSRLHSGVPSRFSGSGSGTDFTLTISSLQPEDFATYYCQQGATLPYTFGPGTKVDIKR
17.9		VH16-L78V/VL43-Y87F (antibody, human IgG1, name in Kabat numbering, V domains shown, substitutions in Kabat numbering) VH: QVQLVQSGGGVVQPGRSLRLSCAASGVSLPDYGVSWVRQAPGKGLEWVAVIWGSETTYYNSALKSRFTISRDNSKNTVYLQMNSLRAEDTAVYYCARHYYYGGSYAMDYWGQGTLVTVSS VL: DIVMTQTPSSLSASVGDRVTITCRASQDISKYLNWYQQKPGKAPKLLIYHTSRLHSGVPSRFSGSGSGTDFTLTISSLQPEDFATYFCQQGNTLPYTFGPGTKVDIKR
	binds	VH16 R94K/Y97F/VL43 V3Q/T7S/N92A (antibody, human IgG1, name in Kabat numbering, V domains shown, substitutions in Kabat numbering) VH: QVQLVQSGGGVVQPGRSLRLSCAASGVSLPDYGVSWVRQAPGKGLEWVAVIWGSETTYYNSALKSRFTISRDNSKNTLYLQMNSLRAEDTAVYYCAKHYFYGGSYAMDYWGQGTLVTVSS VL: DIQMTQSPSSLSASVGDRVTITCRASQDISKYLNWYQQKPGKAPKLLIYHTSRLHSGVPSRFSGSGSGTDFTLTISSLQPEDFATYYCQQGATLPYTFGPGTKVDIKR
4.43		VH16-R71K/VL43 (antibody, human IgG1, name in Kabat numbering, V domains shown, substitutions in Kabat numbering) VH: QVQLVQSGGGVVQPGRSLRLSCAASGVSLPDYGVSWVRQAPGKGLEWVAVIWGSETTYYNSALKSRFTISKDNSKNTLYLQMNSLRAEDTAVYYCARHYYYGGSYAMDYWGQGTLVTVSS VL: DIVMTQTPSSLSASVGDRVTITCRASQDISKYLNWYQQKPGKAPKLLIYHTSRLHSGVPSRFSGSGSGTDFTLTISSLQPEDFATYYCQQGNTLPYTFGPGTKVDIKR
10.8		VH16-L78V/VL43 (antibody, human IgG1, name in Kabat numbering, V domains shown, substitutions in Kabat numbering) VH: QVQLVQSGGGVVQPGRSLRLSCAASGVSLPDYGVSWVRQAPGKGLEWVAVIWGSETTYYNSALKSRFTISRDNSKNTVYLQMNSLRAEDTAVYYCARHYYYGGSYAMDYWGQGTLVTVSS VL: DIVMTQTPSSLSASVGDRVTITCRASQDISKYLNWYQQKPGKAPKLLIYHTSRLHSGVPSRFSGSGSGTDFTLTISSLQPEDFATYYCQQGNTLPYTFGPGTKVDIKR
11.3		VH16/VL43-F71Y (antibody, human IgG1, V domains shown, substitutions in Kabat numbering) VH: QVQLVQSGGGVVQPGRSLRLSCAASGVSLPDYGVSWVRQAPGKGLEWVAVIWGSETTYYNSALKSRFTISRDNSKNTLYLQMNSLRAEDTAVYYCARHYYYGGSYAMDYWGQGTLVTVSS VL: DIVMTQTPSSLSASVGDRVTITCRASQDISKYLNWYQQKPGKAPKLLIYHTSRLHSGVPSRFSGSGSGTDYTLTISSLQPEDFATYYCQQGNTLPYTFGPGTKVDIKR
